This note sets out measurements from patent US20240417484A1, “ANTIGEN-BINDING POLYPEPTIDES AGAINST CD73” (UNIVERSITÄTSKLINIKUM HAMBURG-EPPENDORF, priority 2021, published 2024).

Changes are numbered by the printed parent chain.

The target of test [1] is T1, recombinant human CD73 ectodomain (aa 27-549) with C-terminal His6x tag (human, UniProt P21589 27-549).
T1 construct: also called soluble recombinant human CD73; soluble human CD73
T1 sequence: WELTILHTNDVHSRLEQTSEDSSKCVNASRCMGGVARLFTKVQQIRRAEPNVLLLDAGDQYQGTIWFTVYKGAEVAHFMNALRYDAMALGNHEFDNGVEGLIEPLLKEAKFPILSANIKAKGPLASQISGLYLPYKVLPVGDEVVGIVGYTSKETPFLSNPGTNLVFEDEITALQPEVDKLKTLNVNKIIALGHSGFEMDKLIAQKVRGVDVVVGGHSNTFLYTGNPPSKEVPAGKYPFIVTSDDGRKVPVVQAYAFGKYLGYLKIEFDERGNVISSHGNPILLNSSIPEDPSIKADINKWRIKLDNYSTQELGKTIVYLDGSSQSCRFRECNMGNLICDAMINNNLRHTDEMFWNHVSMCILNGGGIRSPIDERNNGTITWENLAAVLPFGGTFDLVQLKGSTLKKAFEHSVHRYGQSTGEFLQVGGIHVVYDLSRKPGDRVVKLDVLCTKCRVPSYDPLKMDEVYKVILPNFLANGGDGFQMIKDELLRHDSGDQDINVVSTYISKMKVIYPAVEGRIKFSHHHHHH
The test is described as follows: BLI (Octet), immobilized Nb-rbIgG hcAb, soluble human CD73 as analyte. The procedure:
(§1) The binding off-rate constants of bivalent hcAbs to human and mouse CD73 protein were determined by […] kinetic analysis on Octet RED96 (ForteBio). Immobilization of rabbit IgG hcAbs on the protein A-biosensor surface was done in HEK-6E cell supernatant, and regeneration of analytes was done with 100 mM Glycin pH=2.5. Recombinant mouse or human CD73 ectodomain was used as analytes and tested at a saturating dose of 200 ng/μl. Sensorgrams were fitted using least square regression in association than dissociation Model in Prism8 (Graphpad).

The target of test [2] is T2, soluble human CD73 (Homo sapiens, UniProt P21589).
T2 construct: The ectodomain of CD73 (aa 27-549) was expressed as a recombinant protein with a C-terminal His6× tag; His6 (C); made in house; host or cells: transiently transfected HEK cells
T2 sequence (P21589 27-549): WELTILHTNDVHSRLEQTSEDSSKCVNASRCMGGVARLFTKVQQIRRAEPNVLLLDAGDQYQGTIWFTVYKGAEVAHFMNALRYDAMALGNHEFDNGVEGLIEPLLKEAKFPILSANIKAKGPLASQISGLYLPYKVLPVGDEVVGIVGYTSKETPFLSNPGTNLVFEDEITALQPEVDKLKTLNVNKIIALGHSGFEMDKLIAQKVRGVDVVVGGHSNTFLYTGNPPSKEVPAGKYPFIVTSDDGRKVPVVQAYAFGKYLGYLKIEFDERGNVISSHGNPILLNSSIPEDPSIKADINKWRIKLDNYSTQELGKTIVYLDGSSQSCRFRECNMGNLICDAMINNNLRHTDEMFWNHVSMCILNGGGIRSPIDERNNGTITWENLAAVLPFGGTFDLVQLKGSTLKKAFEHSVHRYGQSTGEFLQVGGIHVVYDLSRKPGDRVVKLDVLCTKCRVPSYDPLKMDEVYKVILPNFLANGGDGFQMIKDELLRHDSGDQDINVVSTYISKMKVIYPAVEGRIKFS
The test is described as follows: Off-rates of soluble CD73 from immobilized Nb-rbIgG hcAb on Octet BLI. It is filed as binding. The following applies: soluble human CD73 ectodomain 200 ng/μl as analyte; Nb-rbIgG hcAb immobilized on protein A biosensor. The procedure: as §1
For orientation: Biolayer interferometry detects binding as a change in optical thickness at a sensor tip.

The target of test [3] is T2, soluble human CD73. The test is described as follows: AMP hydrolysis by soluble CD73, DPEA-Napht-Azide fluorescence assay. The following applies: 50 ng CD73, 30 min pre-incubation with 10 μl hcAb supernatant, 1 mM AMP. It is filed as biochemical. The procedure:
Recombinant human CD73 (50 ng) was pre-incubated for 30 min with hcAbs at RT in 96 well plates before addition of AMP and DPEA-Napht-Azide. Fluorescence signals were detected every 50 seconds for 30 repeats. ARFU values (>10^3/min) were calculated for a 10 min interval during the linear phase (from 5 min to 15 min) using Prism software (Graphpad). A non-specific rabbit IgG hcAb was used as control.
• 4.1 CD73 catalyzes the hydrolysis of AMP to adenosine. This reaction can be monitored by the shift in fluorescence intensity of DPEA-Napht-Azide. This property was used to determine whether hcAbs could interfere with the enzymatic activity of CD73. Soluble recombinant human CD73 (50 ng) was pre-incubated for 30 min with Nbs or hcAbs (10 μl HEK-6E cell supernatant containing 10-100 μg/ml hcAb) at RT in 96 well plates before addition of AMP (Sigma) to a final concentration of 1 mM and of DPEA-Napht-Azide to a final concentration of 50 μM. • 4.2 Fluorescence signals were recorded in white Nunc MicroWell plates (Nunc, 136101) on a Victor III plate reader (Perkin Elmer) (Exicitation filter: F485, Emission Filter: F535; CW-Lamp energy: 40000, counting time: 0.1 s). Data analyses were performed using Prism (Graphpad).
Soluble recombinant human CD73 (50 ng) was pre-incubated for 30 min with CD73-specific hcAbs or an irrelevant control hcAb (10 μl HEK-6E cell supernatant) at RT in 96 well plates before addition of AMP (Sigma) to a final concentration of 1 mM and of DPEA-Napht-Azide to a final concentration of 50 μM. Fluorescence signals were detected every 50 seconds for 30 repeats. Data analyses were performed using Prism (Graphpad).

B1: SB125 rabbit IgG hcAb (Fc fusion)
heavy: QVQLQESGGGLVQPGGSLRLSCAVSGFALDYYTIGWFRQAPGKEREGVSCISSSGGSTNYADSVKGRLTISRDNAKNTVYLQMNSLKPEDTAVYYCAAQRYYYCSDKVEVYDYWGQGTQVTVSS
notes: not shown: hinge and Fc-domains of rabbit IgG
In general, koff refers to a measure of how fast the partners let go of each other. B1: in test [1], the off-rate (koff) stood at 0.00058 s⁻¹.

B2: SB108: CD73-specific alpaca VHH clone, family 1, SEQ ID NO:67; tested as rabbit IgG hcAb (antibody)
heavy: B1 heavy with Q3K, Q13H, P14S, G56S, V64M, E109A
modifications: left off: a dimerising Fc or GST
notes: tested as rabbit IgG hcAb
B2 displayed a Kdis with soluble human CD73 [2] of 9.7e-05 s⁻¹. Also, in the test with soluble human CD73 [3], the “effect on hydrolysis of AMP by soluble CD73” value (“effect on hydrolysis of AMP” below) was “inhibited CD73 catalyzed hydrolysis of AMP”.

B3: SB125: CD73-specific alpaca VHH clone, family 1, SEQ ID NO:68; tested as rabbit IgG hcAb (antibody)
heavy: B1 heavy
modifications: left off: a dimerising Fc or GST
notes: tested as rabbit IgG hcAb
On to B3, for which the Kdis with soluble human CD73 [2] was 0.00058 s⁻¹.

B4: SB98: CD73-specific alpaca VHH clone, family 1, SEQ ID NO:62; tested as rabbit IgG hcAb (antibody)
heavy: B1 heavy with Q3K, V24A, A28T, S57I, R100K, D106G, V108A
modifications: left off: a dimerising Fc or GST
notes: tested as rabbit IgG hcAb
On to B4, for which the Kdis with soluble human CD73 [2] was 0.0018 s⁻¹.

B5: SB124 rabbit IgG hcAb (Fc fusion)
heavy: QVQLQESGGGLVQPGGSLRLSCAASGFTLDYYTIGWFRQAPGKEREGVSCVSSSGDRTDYLESVKGRLTISRDNAKNTVYLQMNSLKPEDTGVYYCAAQKYYYCSGKVEVYDYWGQGTQVTVSS
notes: as for B1
For B5, the off-rate constant (koff) in test [1] amounted to 0.0011 s⁻¹.

B6: SB108 rabbit IgG hcAb (Fc fusion)
heavy: B1 heavy with Q3K, Q13H, P14S, G56S, V64M, E109A
notes: as for B1
Regarding B6, the koff in test [1] is 9.7e-05 s⁻¹.

B7: SB115 rabbit IgG hcAb (Fc fusion)
heavy: DVQLQASGGGLVQPGGSLRLSCVVSGFTLDYYTIGWFRQAPGKEREGVSCINSSGGVTNYADSVKGRFTISRDNAKNTVYLQMNSLKSEDTAVYYCAAQKYYYCSRKGEVYDSWGQGTQVTVSS
notes: as for B1
B7: the koff in test [1] came to 0.00035 s⁻¹.

B8: SB98 rabbit IgG hcAb (Fc fusion)
heavy: B1 heavy with Q3K, V24A, A28T, S57I, R100K, D106G, V108A
notes: as for B1
In the case of B8, in test [1], the dissociation rate constant (koff) turned out to be 0.0018 s⁻¹.

B9: SB124: CD73-specific alpaca VHH clone, family 1, SEQ ID NO:65; tested as rabbit IgG hcAb (antibody)
heavy: B5 heavy
modifications: left off: a dimerising Fc or GST
notes: tested as rabbit IgG hcAb
In turn, B9 had a Kdis in the test with soluble human CD73 [2] of 0.0011 s⁻¹.

B10: SB115: CD73-specific alpaca VHH clone, family 1, SEQ ID NO:63; tested as rabbit IgG hcAb (antibody)
heavy: B7 heavy
modifications: left off: a dimerising Fc or GST
notes: tested as rabbit IgG hcAb
Regarding B10, in the test with soluble human CD73 [2], the Kdis was 0.00035 s⁻¹. In the test with soluble human CD73 [3], the “effect on hydrolysis of AMP” value is “inhibited CD73 catalyzed hydrolysis of AMP”.

B11: SB107: CD73-specific alpaca VHH clone, family 1, SEQ ID NO:66; tested as rabbit IgG hcAb (antibody)
heavy: QVQLQESGGGLVQPGGSLRLSCAASGFTLDYLTIGWFRQAPGKEREGVSCINSNGGSTIYADSVKGRLTISRDNAKNTVYLQINSLKPDDTAVYFCAAQKYYYCSGRVEVYDYWGQGIQVTVSS
modifications: left off: a dimerising Fc or GST
notes: tested as rabbit IgG hcAb
For the molecule B11, the “effect on hydrolysis of AMP” value with soluble human CD73 [3] is “inhibited CD73 catalyzed hydrolysis of AMP”.

B12: SB142 rabbit IgG hcAb (Fc fusion)
heavy: QVQLVESGGGLVQPGGSLRLSCAASGFTFINYHMSWLRQAPGKGLEWVSEIHSRGDITSYTNSVKGRFTISRDNAKNTLYLQMNSLKFDDTAVYYCARSRDLFGEGEYDYWGRGTQVTVSS
notes: as for B1
Regarding B12, the off-rate (koff) in test [1] was 0.00036 s⁻¹.

B13: SB123 rabbit IgG hcAb (Fc fusion)
heavy: DVQLQESGGGLVQPGGSLTLSCAASGFTLDYLSIGWFRQVPGKEREGVSCINSSGGSTNYADSVKGRLTISRDNAKNTVYLQINSLKPEDTAVYYCAAHKYYYCSNKVAVFDYWGQGTQVTVSS
notes: as for B1
Regarding B13, in test [1], the koff is 4.3e-05 s⁻¹.

B14: SB123: CD73-specific alpaca VHH clone, family 1, SEQ ID NO:64; tested as rabbit IgG hcAb (antibody)
heavy: B13 heavy
modifications: left off: a dimerising Fc or GST
notes: tested as rabbit IgG hcAb
Turning to B14, in the test with soluble human CD73 [2], the Kdis was 4.3e-05 s⁻¹.
